Assay results from paper PMC9098913, “In vitro reconstitution of Escherichia coli divisome activation” (Nature Communications, 2022).

Test system: FtsA self-interaction
Assay: FRET self-interaction of His-tagged FtsAs (and His-SUMO control) on Tris-NTA membranes
Format: binding, E. coli
Method: To study colocalization of His-tagged variants of FtsA, 0.5–1 µM of Cy5 labelled His-tagged FtsAs were added to the chamber, incubated for 20 min and washed 6x with reaction buffer. […] To control the density of membrane-bound FtsA, SUVs without and with Tris-NTA lipids were mixed to obtain the respective Tris-NTA concentrations. To perform FRET/FRAP experiments, equimolar concentrations of Cy3 and Cy5 labelled His-tagged FtsAs (total 0.5–1 µM) or His-SUMO-Cys were added to a chamber and treated as above. […] FRAP experiments were performed as described before.
Bleaching the acceptor dye leads to an increase in the donor intensity, which can be used to quantify the Foerster Resonance energy transfer (FRET)[48]. FRET efficiency was quantified with E%=Ipost/Ipost+Ipre⋅100 , where Ipost is the intensity of the […] and Ipre is the […]. […] To extract the contribution of both processes, we adjusted a routine recently published by Gerganova et al.[33]. In short, the code provides the contribution of both modes of recovery by analysing the shape of the fluorescence recovery profile. […] Contribution of diffusion leads to a change of the slope of the outer borders of the bleached region (S4h right). Thus, by measuring the change of the slope of the border recovery, diffusion and simple on/off binding can be distinguished. We developed “FRAPdiff”, a graphical user interface, which uses the original fit routine by David Rutkowski. It can be used directly on.tiff movies with annotated bleach regions as ImageJ ROIs. In addition, we added optional bleach correction, user selectable projection axis (x or y), and optional mirroring of the recovery profiles, if bleaching was not symmetric. The original fit routine for estimating the recovery and diffusion dynamics can be found at https://github.com/davidmrutkowski/1DReflectingDiffusion. FRAPdiff is available at 10.5281/zenodo.6400639[49] under the GPLv3 open-source license.

B1: FtsA R286W-His6: FtsA R286W (1-405) with amphipathic helix replaced by C-terminal His-tag (protein)
chain: MIKATDRKLVVGLEIGTAKVAALVGEVLPDGMVNIIGVGSCPSRGMDKGGVNDLESVVKCVQRAIDQAELMADCQISSVYLALSGKHISCQNEIGMVPISEEEVTQEDVENVVHTAKSVRVRDEHRVLHVIPQEYAIDYQEGIKNPVGLSGVRMQAKVHLITCHNDMAKNIVKAVERCGLKVDQLIFAGLASSYSVLTEDERELGVCVVDIGGGTMDIAVYTGGALRHTKVIPYAGNVVTSDIAYAFGTPPSDAEAIKVRHGCALGSIVGKDESVEVPSVGGRPPWSLQRQTLAEVIEPRYTELLNLVNEEILQLQEKLRQQGVKHHLAAGIVLTGGAAQIEGLAACAQRVFHTQVRIGAPLNITGLTDYAQEPYYSTAVGLLHYGKESHLNGEAEVEKRVTASV
modifications: Cy3 or Cy5 at the N-terminus in the labelled form (sortagging as for native FtsA); left off: TwinStrep-SUMO, N-terminal, cleaved | 5xGlycine tag, N-terminal, kept | His6, C-terminal, kept
0.1% Tris NTA, + FtsZ; Exp1
  FRET efficiency: 0.51%
0.1% Tris NTA, + FtsZ; Exp2
  FRET efficiency: 0.32%
0.1% Tris NTA, + FtsZ; mean, n = 2
  FRET efficiency: 0.42%
0.1% Tris NTA, without FtsZ; Exp1
  FRET efficiency: 0.42%
0.1% Tris NTA, without FtsZ; Exp2
  FRET efficiency: 0.20%
0.1% Tris NTA, without FtsZ; mean, n = 2
  FRET efficiency: 0.31%
0.4% Tris NTA; + FtsZ; Exp1
  FRET efficiency: 4.18%
0.4% Tris NTA; + FtsZ; Exp2
  FRET efficiency: 2.69%
0.4% Tris NTA; + FtsZ; Mean, n = 2
  FRET efficiency: 3.43%
0.4% Tris NTA; without FtsZ; Exp1
  FRET efficiency: 3.62%
0.4% Tris NTA; without FtsZ; Exp2
  FRET efficiency: 3.61%
0.4% Tris NTA; without FtsZ; Mean, n = 2
  FRET efficiency: 3.62%
0.6% Tris NTA; + FtsZ; Exp1
  FRET efficiency: 3.82%
0.6% Tris NTA; + FtsZ; Exp2
  FRET efficiency: 8.42%
0.6% Tris NTA; + FtsZ; Exp3
  FRET efficiency: 3.49%
0.6% Tris NTA; + FtsZ; Mean, n = 3
  FRET efficiency: 5.24%
0.6% Tris NTA; without FtsZ; Exp1
  FRET efficiency: 2.27%
0.6% Tris NTA; without FtsZ; Exp2
  FRET efficiency: 7.55%
0.6% Tris NTA; without FtsZ; Exp3
  FRET efficiency: 3.60%
0.6% Tris NTA; without FtsZ; Mean, n = 3 (His6-SUMO n = 2)
  FRET efficiency: 4.47%
0.8% Tris NTA; + FtsZ; Exp1
  FRET efficiency: 12.66%
0.8% Tris NTA; + FtsZ; Exp2
  FRET efficiency: 13.96%
0.8% Tris NTA; + FtsZ; Exp3
  FRET efficiency: 6.95%
0.8% Tris NTA; + FtsZ; Mean, n = 3
  FRET efficiency: 11.19%
0.8% Tris NTA; without FtsZ; Exp1
  FRET efficiency: 11.90%
0.8% Tris NTA; without FtsZ; Exp2
  FRET efficiency: 13.18%
0.8% Tris NTA; without FtsZ; Exp3
  FRET efficiency: 7.63%
0.8% Tris NTA; without FtsZ; Mean, n = 3 (His6-SUMO n = 2)
  FRET efficiency: 10.90%
1% Tris NTA; + FtsZ; Exp1
  FRET efficiency: 18.63%
1% Tris NTA; + FtsZ; Exp2
  FRET efficiency: 11.68%
1% Tris NTA; + FtsZ; Exp3
  FRET efficiency: 16.69%
1% Tris NTA; + FtsZ; Exp4
  FRET efficiency: 5.28%
1% Tris NTA; + FtsZ; Mean, n = 3 (R286W-His6 n = 4)
  FRET efficiency: 13.07%
1% Tris NTA; without FtsZ; Exp1
  FRET efficiency: 13.30%
1% Tris NTA; without FtsZ; Exp2
  FRET efficiency: 11.28%
1% Tris NTA; without FtsZ; Exp3
  FRET efficiency: 16.33%
1% Tris NTA; without FtsZ; Exp4
  FRET efficiency: 5.94%
1% Tris NTA; without FtsZ; Mean, n = 3 (R286W-His6 n = 4)
  FRET efficiency: 11.71%
2% Tris NTA; + FtsZ; Exp1
  FRET efficiency: 13.95%
2% Tris NTA; + FtsZ; Exp2
  FRET efficiency: 11.07%
2% Tris NTA; + FtsZ; Mean, n = 2
  FRET efficiency: 12.51%
2% Tris NTA; without FtsZ; Exp1
  FRET efficiency: 11.54%
2% Tris NTA; without FtsZ; Exp2
  FRET efficiency: 10.61%
2% Tris NTA; without FtsZ; Mean, n = 2
  FRET efficiency: 11.08%
Tris 0.40 %, + FtsZ; mean
  FRET efficiency: 3.43%
Tris 0.40 %, without FtsZ; mean
  FRET efficiency: 3.61%
Tris 0.60 %, + FtsZ; mean
  FRET efficiency: 5.24%
Tris 0.60 %, without FtsZ; mean
  FRET efficiency: 4.47%
Tris 0.80 %, + FtsZ; mean
  FRET efficiency: 11.19%
Tris 0.80 %, without FtsZ; mean
  FRET efficiency: 10.90%
Tris 1.00 %, + FtsZ; mean
  FRET efficiency: 13.07%
Tris 1.00 %, without FtsZ; mean
  FRET efficiency: 11.71%
Tris 2.00 %, + FtsZ; mean
  FRET efficiency: 12.51%
Tris 2.00 %, without FtsZ; mean
  FRET efficiency: 11.08%
[…] Tris NTA, + FtsZ; Exp1
  FRET efficiency: 3.67%
[…] Tris NTA, + FtsZ; Exp2
  FRET efficiency: 2.76%
[…] Tris NTA, + FtsZ; mean, n = 2
  FRET efficiency: 3.22%
[…] Tris NTA, without FtsZ; Exp1
  FRET efficiency: 3.93%
[…] Tris NTA, without FtsZ; Exp2
  FRET efficiency: 1.52%
[…] Tris NTA, without FtsZ; mean, n = 2
  FRET efficiency: 2.73%
[…] Tris NTA; + FtsZ; Exp1
  FRET efficiency: 8.55%
[…] Tris NTA; + FtsZ; Exp2
  FRET efficiency: 12.05%
[…] Tris NTA; + FtsZ; Exp3
  FRET efficiency: 9.96%
[…] Tris NTA; + FtsZ; Mean, n = 3
  FRET efficiency: 10.19%
[…] Tris NTA; without FtsZ; Exp1
  FRET efficiency: 9.50%
[…] Tris NTA; without FtsZ; Exp2
  FRET efficiency: 13.25%
[…] Tris NTA; without FtsZ; Exp3
  FRET efficiency: 7.80%
[…] Tris NTA; without FtsZ; Mean, n = 3
  FRET efficiency: 10.18%
[…] Tris-NTA
  FRET increase with FtsNcyto-His: more than twofold
[…] Tris-NTA; + N (FtsNcyto); mean
  FRET efficiency: 18.47%
[…] Tris-NTA; + N/Z (FtsNcyto and FtsZ); mean
  FRET efficiency: 17.73%
[…] Tris-NTA; + N/Z; Exp. 1
  FRET efficiency: 21.67%
[…] Tris-NTA; + N/Z; Exp. 2
  FRET efficiency: 17.33%
[…] Tris-NTA; + N/Z; Exp. 3
  FRET efficiency: 14.20%
[…] Tris-NTA; + N; Exp. 1
  FRET efficiency: 22.02%
[…] Tris-NTA; + N; Exp. 2
  FRET efficiency: 17.07%
[…] Tris-NTA; + N; Exp. 3
  FRET efficiency: 16.35%
[…] Tris-NTA; + Z (FtsZ); mean
  FRET efficiency: 8.99%
[…] Tris-NTA; + Z; Exp. 1
  FRET efficiency: 5.42%
[…] Tris-NTA; + Z; Exp. 2
  FRET efficiency: 8.55%
[…] Tris-NTA; + Z; Exp. 3
  FRET efficiency: 12.05%
[…] Tris-NTA; + Z; Exp. 4
  FRET efficiency: 9.96%
[…] Tris-NTA; alone; Exp. 1
  FRET efficiency: 4.90%
[…] Tris-NTA; alone; Exp. 2
  FRET efficiency: 9.50%
[…] Tris-NTA; alone; Exp. 3
  FRET efficiency: 13.25%
[…] Tris-NTA; alone; Exp. 4
  FRET efficiency: 7.80%
[…] Tris-NTA; alone; mean
  FRET efficiency: 8.86%
With FtsNcyto attached to the membrane; mean ± s.d.; p-value 0.03
  FRET efficiency: 17.73 ± 3.06%
